The results in this text go back to paper PMC5746218.

Some results are limits rather than exact numbers.

For this assay, the target named is PitA (Haloferax volcanii) (Haloferax volcanii (endogenous in strain H26)). As to the kind of experiment: SEC; Sephacryl S-300 gel filtration of purified PitA against standard proteins (thyroglobulin, ferritin, KatG, BSA, cytochrome c554, cytochrome c).

In turn, PitA (Haloferax volcanii) (enzyme) showed a stoichiometry N (molecules of the subunit) above 10.
